Patent publication US20050123900A1

Legend:
[1] = biological target: HIV-1 Env 89.6 on 293 cells (HIV-1 isolate 89.6) (UniProt Q73372); assay: cell-based or functional assay
[2] = biological target: HIV-1 Env BR025.9 on 293 cells (HIV-1 isolate BR025.9); assay: cell-based or functional assay
[3] = biological target: HIV-1 Env BR029.2 on 293 cells (HIV-1 isolate BR029.2); assay: cell-based or functional assay
[4] = biological target: HIV-1 Env HT593.1 on 293 cells (HIV-1 isolate HT593.1); assay: cell-based or functional assay
[5] = biological target: HIV-1 Env NL4-3 on 293 cells (HIV-1 isolate NL4-3); assay: cell-based or functional assay
[6] = biological target: HIV-1 Env RW020.5 on 293 cells (HIV-1 isolate RW020.5); assay: cell-based or functional assay
[7] = biological target: HIV-1 Env TH022.4 on 293 cells (HIV-1 isolate TH022.4); assay: cell-based or functional assay
[8] = biological target: HIV-1 Env UG037.8 on 293 cells (HIV-1 isolate UG037.8); assay: cell-based or functional assay
[9] = biological target: HIV-1 Env UG975.10 on 293 cells (HIV-1 isolate UG975.10); assay: cell-based or functional assay
[10] = biological target: HIV-1 Env US005.11 on 293 cells (HIV-1 isolate US005.11); assay: cell-based or functional assay
[11] = biological target: HIV-1 Env US715.6 on 293 cells (HIV-1 isolate US715.6); assay: cell-based or functional assay
[12] = biological target: HIV-1 Env #4-4/116 on pseudotype virus (HIV-1 isolate #4-4/116); assay: cell-based or functional assay
[13] = biological target: HIV-1 Env #6-4/41 on pseudotype virus (HIV-1 isolate #6-4/41); assay: cell-based or functional assay
[14] = biological target: HIV-1 Env #8-4/49 on pseudotype virus (HIV-1 isolate #8-4/49); assay: cell-based or functional assay
[15] = biological target: HIV-1 Env #9-131 on pseudotype virus (HIV-1 isolate #9-131); assay: cell-based or functional assay
[16] = biological target: HIV-1 Env 92RW020.5 on pseudotype virus (HIV-1 isolate 92RW020.5); assay: cell-based or functional assay
[17] = biological target: HIV-1 Env GX-C44 on pseudotype virus (HIV-1 isolate GX-C44); assay: cell-based or functional assay
[18] = biological target: HIV-1 Env GX-E14 on pseudotype virus (HIV-1 isolate GX-E14); assay: cell-based or functional assay
[19] = biological target: HIV-1 Env MN-TCLA on pseudotype virus (HIV-1 isolate MN-TCLA) (UniProt P05877); assay: cell-based or functional assay
[20] = biological target: HIV-1 Env P37 on pseudotype virus (HIV-1 isolate P37); assay: cell-based or functional assay
[21] = biological target: HIV-1 Env R2 on pseudotype virus (HIV-1 isolate R2); assay: cell-based or functional assay
[22] = biological target: HIV-1 Env TH966 on pseudotype virus (HIV-1 isolate TH966); assay: cell-based or functional assay
[23] = biological target: HIV-1 Env V5 on pseudotype virus (HIV-1 isolate V5); assay: cell-based or functional assay
[24] = biological target: HIV-1 Env VI1273 on pseudotype virus (HIV-1 isolate VI1273); assay: cell-based or functional assay
[25] = biological target: HIV-1 Env VI1399 on pseudotype virus (HIV-1 isolate VI1399); assay: cell-based or functional assay
[26] = biological target: HIV-1 Env VI14004 on pseudotype virus (HIV-1 isolate VI14004); assay: cell-based or functional assay
[27] = biological target: HIV-1 Env Z2Z6 on pseudotype virus (HIV-1 isolate Z2Z6); assay: cell-based or functional assay
[28] = biological target: gp120 89.6 (HIV-1 isolate 89.6) (UniProt Q73372); assay: ELISA, antigen coated directly on plate, soluble Fab titrated, Langmuir fit
[29] = biological target: gp120 IIIB (HIV-1 isolate IIIB); assay: as above
[30] = biological target: gp120 JR-FL (HIV-1 isolate JR-FL) (UniProt P20871); assay: as above
[31] = biological target: gp140 89.6 (HIV-1 isolate 89.6) (UniProt Q73372); assay: ELISA, soluble Fab titrated on Env (direct coat or D7324 capture not given)
[32] = biological target: gp140 BR019.10 (HIV-1 isolate BR019.10); assay: as above
[33] = biological target: gp140 Bal-L (HIV-1 isolate Bal-L); assay: as above
[34] = biological target: gp140 CM243 (HIV-1 isolate CM243); assay: as above
[35] = biological target: gp140 HT593.1 (HIV-1 isolate HT593.1); assay: as above
[36] = biological target: gp140 MW965.26 (HIV-1 isolate MW965.26); assay: as above
[37] = biological target: gp140 R2 (HIV-1 isolate R2); assay: as above
[38] = biological target: gp140 UG024.2 (HIV-1 isolate UG024.2); assay: as above
[39] = biological target: gp140 UG037.8 (HIV-1 isolate UG037.8); assay: as above
[40] = biological target: gp140 UG975-10 (HIV-1 isolate UG975-10); assay: as above
[41] = biological target: gp140 ZR001.3 (HIV-1 isolate ZR001.3); assay: as above
[42] = biological target: sCD4-gp120 89.6 complex (HIV-1 isolate 89.6) (UniProt Q73372); assay: ELISA, sCD4-gp120 complex coated directly on plate, soluble Fab titrated, Langmuir fit
[43] = biological target: sCD4-gp120 IIIB complex (HIV-1 isolate IIIB) (UniProt P01730); assay: as above
[44] = biological target: sCD4-gp120 JR-FL complex (HIV-1 isolate JR-FL) (UniProt P01730); assay: as above
[45] = biological target: gp120 IIIB (HIV-1 isolate IIIB); assay: ELISA, soluble Fab titrated on Env (gp120 by the footnote; direct coat or D7324 capture not specified)
[46] = biological target: gp120 HXB2 (HIV-1 isolate HXB2) (UniProt P04578); assay: ELISA, antigen coated directly on plate, soluble Fab titrated, Langmuir fit
[47] = biological target: sCD4-gp120 HXB2 complex (HIV-1 isolate HXB2) (UniProt P04578); assay: ELISA, sCD4-gp120 complex coated directly on plate, soluble Fab titrated, Langmuir fit

Fab X5
% of fusion inhibition (syncytia count), Fab at 50 µg/ml [1]: 93% | % of fusion inhibition (syncytia count), Fab at 50 µg/ml [2]: 71% | % of fusion inhibition (syncytia count), Fab at 50 µg/ml [3]: 36% | % of fusion inhibition (syncytia count), Fab at 50 µg/ml [4]: 27% | % of fusion inhibition (syncytia count), Fab at 50 µg/ml [5]: 83% | % of fusion inhibition (syncytia count), Fab at 50 µg/ml [6]: 45% | % of fusion inhibition (syncytia count), Fab at 50 µg/ml [7]: 43% | % of fusion inhibition (syncytia count), Fab at 50 µg/ml [8]: 34% | % of fusion inhibition (syncytia count), Fab at 50 µg/ml [9]: 19% | % of fusion inhibition (syncytia count), Fab at 50 µg/ml [10]: 72% | % of fusion inhibition (syncytia count), Fab at 50 µg/ml [11]: 28%

Fab m18
M18 Concentration (µg/ml) of Fab, 50% neutralization endpoint, pseudovirus assay [12]: 6.3 µg/mL | M18 Concentration (µg/ml) of Fab, 50% neutralization endpoint, pseudovirus assay [13]: 100 µg/mL | M18 Concentration (µg/ml) of Fab, 50% neutralization endpoint, pseudovirus assay [14]: 5 µg/mL | M18 Concentration (µg/ml) of Fab, 50% neutralization endpoint, pseudovirus assay [15]: > 100 µg/mL | % of fusion inhibition (syncytia count), Fab at 50 µg/ml [1]: 100% | M18 Concentration (µg/ml) of Fab, 50% neutralization endpoint, pseudovirus assay [16]: 3 µg/mL | % of fusion inhibition (syncytia count), Fab at 50 µg/ml [2]: 86% | % of fusion inhibition (syncytia count), Fab at 50 µg/ml [3]: 86% | M18 Concentration (µg/ml) of Fab, 50% neutralization endpoint, pseudovirus assay [17]: > 25 µg/mL | M18 Concentration (µg/ml) of Fab, 50% neutralization endpoint, pseudovirus assay [18]: > 100 µg/mL | % of fusion inhibition (syncytia count), Fab at 50 µg/ml [4]: 39% | M18 Concentration (µg/ml) of Fab, 50% neutralization endpoint, pseudovirus assay [19]: < 1.6 µg/mL | % of fusion inhibition (syncytia count), Fab at 50 µg/ml [5]: 92% | M18 Concentration (µg/ml) of Fab, 50% neutralization endpoint, pseudovirus assay [20]: 100 µg/mL | M18 Concentration (µg/ml) of Fab, 50% neutralization endpoint, pseudovirus assay [21]: 1.6 µg/mL | % of fusion inhibition (syncytia count), Fab at 50 µg/ml [6]: 25% | % of fusion inhibition (syncytia count), Fab at 50 µg/ml [7]: 93% | M18 Concentration (µg/ml) of Fab, 50% neutralization endpoint, pseudovirus assay [22]: > 100 µg/mL | % of fusion inhibition (syncytia count), Fab at 50 µg/ml [8]: 34% | % of fusion inhibition (syncytia count), Fab at 50 µg/ml [9]: 56% | % of fusion inhibition (syncytia count), Fab at 50 µg/ml [10]: 93% | % of fusion inhibition (syncytia count), Fab at 50 µg/ml [11]: 97% | M18 Concentration (µg/ml) of Fab, 50% neutralization endpoint, pseudovirus assay [23]: < 2 µg/mL | M18 Concentration (µg/ml) of Fab, 50% neutralization endpoint, pseudovirus assay [24]: 25 µg/mL | M18 Concentration (µg/ml) of Fab, 50% neutralization endpoint, pseudovirus assay [25]: > 100 µg/mL | M18 Concentration (µg/ml) of Fab, 50% neutralization endpoint, pseudovirus assay [26]: < 2 µg/mL | M18 Concentration (µg/ml) of Fab, 50% neutralization endpoint, pseudovirus assay [27]: 25 µg/mL | Kd [28]: 1 nM | Kd [29]: 0.08 nM | Kd [30]: 0.9 nM | EC50 [31]: 1.17 nM | EC50 [32]: 0.77 nM | EC50 [33]: 0.53 nM | EC50 [34]: 116 nM | EC50 [35]: 0.25 nM | EC50 [36]: 0.55 nM | EC50 [37]: 0.13 nM | EC50 [38]: 0.97 nM | EC50 [39]: 0.83 nM | EC50 [40]: 0.87 nM | EC50 [41]: 1.07 nM | Kd [42]: 0.9 nM | Kd [43]: 0.09 nM | Kd [44]: 0.7 nM | EC50 [45]: 0.48 nM

Fab m14
M14 Concentration (µg/ml) of Fab, 50% neutralization endpoint, pseudovirus assay [12]: > 100 µg/mL | M14 Concentration (µg/ml) of Fab, 50% neutralization endpoint, pseudovirus assay [13]: > 100 µg/mL | M14 Concentration (µg/ml) of Fab, 50% neutralization endpoint, pseudovirus assay [14]: 35.4 µg/mL | M14 Concentration (µg/ml) of Fab, 50% neutralization endpoint, pseudovirus assay [15]: 100 µg/mL | % of fusion inhibition (syncytia count), Fab at 50 µg/ml [1]: 100% | % of fusion inhibition (syncytia count), Fab at 50 µg/ml [2]: 71% | % of fusion inhibition (syncytia count), Fab at 50 µg/ml [3]: 71% | M14 Concentration (µg/ml) of Fab, 50% neutralization endpoint, pseudovirus assay [17]: 8.8 µg/mL | M14 Concentration (µg/ml) of Fab, 50% neutralization endpoint, pseudovirus assay [18]: 100 µg/mL | % of fusion inhibition (syncytia count), Fab at 50 µg/ml [4]: 78% | M14 Concentration (µg/ml) of Fab, 50% neutralization endpoint, pseudovirus assay [19]: 2.24 µg/mL | % of fusion inhibition (syncytia count), Fab at 50 µg/ml [5]: 96% | M14 Concentration (µg/ml) of Fab, 50% neutralization endpoint, pseudovirus assay [21]: 2.24 µg/mL | % of fusion inhibition (syncytia count), Fab at 50 µg/ml [6]: 31% | % of fusion inhibition (syncytia count), Fab at 50 µg/ml [7]: 100% | M14 Concentration (µg/ml) of Fab, 50% neutralization endpoint, pseudovirus assay [22]: > 100 µg/mL | % of fusion inhibition (syncytia count), Fab at 50 µg/ml [8]: 100% | % of fusion inhibition (syncytia count), Fab at 50 µg/ml [9]: 22% | % of fusion inhibition (syncytia count), Fab at 50 µg/ml [10]: 95% | % of fusion inhibition (syncytia count), Fab at 50 µg/ml [11]: 35% | M14 Concentration (µg/ml) of Fab, 50% neutralization endpoint, pseudovirus assay [24]: 3.1 µg/mL | M14 Concentration (µg/ml) of Fab, 50% neutralization endpoint, pseudovirus assay [25]: > 100 µg/mL | M14 Concentration (µg/ml) of Fab, 50% neutralization endpoint, pseudovirus assay [27]: 50 µg/mL | Kd [28]: 5.4 nM | Kd [46]: 0.3 nM | Kd [30]: 0.9 nM | Kd [42]: 7.3 nM | Kd [47]: 0.4 nM | Kd [44]: 1.2 nM
